The target in this test is GST-CGN(1–70) (GST-tagged cCGN, 1–70 amino acids) (canis (dog)). The experiment in a line: pull-down.
GST-CGN(1–70) (GST-tagged cCGN, 1–70 amino acids) (canis (dog)), sequence (A7YH32 1-70): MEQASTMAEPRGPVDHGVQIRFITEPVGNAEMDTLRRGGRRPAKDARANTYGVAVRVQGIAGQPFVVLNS

On to “GFP-hZO-1-Cter (1619–1748) (from UniProt Q07157 1619-1748) (domain or fragment)”, for which the fold stronger binding than larger fragments was over 4 fold.
